Results: patent US20190016825A1 (JIANGSU HENGRUI MEDICINE, published 2019)
Residue numbers refer to the chain shown, from its start.

B1: h001-9 (antibody, human IgG1, V domains shown)
VH: QVQLVQSGAEVKKPGASVKVSCKASGYTFTDYWMHWVRQAPGQGLEWMGYINPSSGFTKYHQNFKDRVTMTRDTSISTAYMELSRLTSDDTAVYYCARQYDYDEDWYFDVWGQGTTVTVSS
VL: DIQMTQSPSSLSASVGDRVTITCKSSQSLLNSRTRKNFLAWYQQKPGKAPKLLIYWASTRESGVPSRFSGSGSGTDFTLTISSLQPEDFATYYCKQSFNLFTFGQGTKLEIK
notes: Variable regions only; also called h001_VH.1B + h001_VL.1
B2: h001-6 (antibody, human IgG1, V domains shown)
VH: B1 VH with T30N, T87R
VL: B1 VL with S66D
notes: Variable regions only; also called h001_VH.1A + h001_VL.1A
B3: h001-8 (antibody, human IgG1, V domains shown)
VH: B1 VH with T30N, T87R
VL: B1 VL with Q3V, T5S, A49S, S66D
notes: Variable regions only; also called h001_VH.1A + h001_VL.1C
B4: h001-5 (antibody, human IgG1, V domains shown)
VH: B1 VH with T30N, T87R
VL: B1 VL
notes: Variable regions only; also called h001_VH.1A + h001_VL.1
B5: h001-2 (antibody, human IgG1, V domains shown)
VH: B1 VH with T87R
VL: B1 VL with S66D
notes: Variable regions only; also called h001_VH.1 + h001_VL.1A
B6: h001-7 (antibody, human IgG1, V domains shown)
VH: B1 VH with T30N, T87R
VL: B1 VL with T5S, S66D
notes: Variable regions only; also called h001_VH.1A + h001_VL.1B
B7: h001-1 (antibody, human IgG1, V domains shown)
VH: B1 VH with T87R
VL: B1 VL
notes: Variable regions only; also called h001_VH.1 + h001_VL.1
B8: h001-3 (antibody, human IgG1, V domains shown)
VH: B1 VH with T87R
VL: B1 VL with T5S, S66D
notes: Variable regions only; also called h001_VH.1 + h001_VL.1B
B9: h001-14 (antibody, human IgG1, V domains shown)
VH: B1 VH with T30N
VL: B1 VL with S66D
notes: Variable regions only; also called h001_VH.1C + h001_VL.1A
B10: h001-22 (antibody, human IgG1, V domains shown)
VH: B1 VH with T30N, R38K, M48I, R67K, V68A, M70L, R72A, T74K
VL: B1 VL with S66D
notes: Variable regions only; also called h001_VH.1E + h001_VL.1A
B11: h001-15 (antibody, human IgG1, V domains shown)
VH: B1 VH with T30N
VL: B1 VL with T5S, S66D
notes: Variable regions only; also called h001_VH.1C + h001_VL.1B
B12: h001-21 (antibody, human IgG1, V domains shown)
VH: B1 VH with T30N, R38K, M48I, R67K, V68A, M70L, R72A, T74K
VL: B1 VL
notes: Variable regions only; also called h001_VH.1E + h001_VL.1
B13: h001-17 (antibody, human IgG1, V domains shown)
VH: B1 VH with T30N, R72A, T74K
VL: B1 VL
notes: Variable regions only; also called h001_VH.1D + h001_VL.1
B14: h001-18 (antibody, human IgG1, V domains shown)
VH: B1 VH with T30N, R72A, T74K
VL: B1 VL with S66D
notes: Variable regions only; also called h001_VH.1D + h001_VL.1A
B15: h001-13 (antibody, human IgG1, V domains shown)
VH: B1 VH with T30N
VL: B1 VL
notes: Variable regions only; also called h001_VH.1C + h001_VL.1
B16: h001-20 (antibody, human IgG1, V domains shown)
VH: B1 VH with T30N, R72A, T74K
VL: B1 VL with Q3V, T5S, A49S, S66D
notes: Variable regions only; also called h001_VH.1D + h001_VL.1C
B17: h001-11 (antibody, human IgG1, V domains shown)
VH: B1 VH
VL: B1 VL with T5S, S66D
notes: Variable regions only; also called h001_VH.1B + h001_VL.1B
B18: h001-19 (antibody, human IgG1, V domains shown)
VH: B1 VH with T30N, R72A, T74K
VL: B1 VL with T5S, S66D
notes: Variable regions only; also called h001_VH.1D + h001_VL.1B
B19: h001-16 (antibody, human IgG1, V domains shown)
VH: B1 VH with T30N
VL: B1 VL with Q3V, T5S, A49S, S66D
notes: Variable regions only; also called h001_VH.1C + h001_VL.1C
B20: h001-12 (antibody, human IgG1, V domains shown)
VH: B1 VH
VL: B1 VL with Q3V, T5S, A49S, S66D
notes: Variable regions only; also called h001_VH.1B + h001_VL.1C
B21: h001-23 (antibody, human IgG1, V domains shown)
VH: B1 VH with T30N, R38K, M48I, R67K, V68A, M70L, R72A, T74K
VL: B1 VL with T5S, S66D
notes: Variable regions only; also called h001_VH.1E + h001_VL.1B
B22: h001-24 (antibody, human IgG1, V domains shown)
VH: B1 VH with T30N, R38K, M48I, R67K, V68A, M70L, R72A, T74K
VL: B1 VL with Q3V, T5S, A49S, S66D
notes: Variable regions only; also called h001_VH.1E + h001_VL.1C

Biological target: T1, PCSK9-D374Y-BP15-His6 (human, UniProt Q8NBP7 31-692, biotin on the BP15 biotin receiving peptide)
T1 construct: also called PCSK9-Y; mutant PCSK9
Experiment: blocking ELISA, LDLR-FC (SEQ ID NO: 8) coated, bio-PCSK9-Y plus antibody
Experimental: The blocking abilities of anti-PCSK9 antibodies to the binding of LDLR-FC (SEQ ID NO: 8) to PCSK9-Y (mutant PCSK9, SEQ ID NO: 6) were detected by measuring the amount of PCSK9-Y binding to LDLR in the presence of the antibodies.
LDLR-FC was diluted to 2 μg/ml with phosphate buffer and coated in the 96-well ELISA plate (Costar, CAT#3590), then incubated at 4° C. overnight. The plate was washed and then blocked with Tris buffer (including 0.9 mM CaCl₂, 0.05% Tween 20 and 5% skim milk) at 37° C. for 2 hours. Then the plate was washed again and 100 μl/well of the mixture of biotin-labeled PCSK9-Y (bio-PCSK9-Y, diluted to final concentration of […] with Tris buffer containing 0.9 mM CaCl₂, 0.05% Tween 20 and 1% skim milk) and antibody samples (diluted with Tris buffer containing 0.9 mM CaCl₂, 0.05% Tween 20 and 1% skim milk) were added and incubated at 37° C. for 1 hour. Then the plate was washed again and horseradish peroxidase-streptavidin (sigma, CAT#S2438) was added and incubated at 37° C. for 1 hour. Then the plate was washed and tetramethylbenzidine solution was added for development. Finally, the stop solution was added and the OD450 value was measured on the Microplate reader, then IC50 was calculated.
The results of blocking test for the blocking effects of the chimeric antibodies and back-mutated antibodies of the present invention on the binding of LDLR-FC/PCSK9-Y are shown in table 7.

IC50 [µg/mL]	Binder
0.52	B1
0.437	B2
0.414	B3
0.468	B4
0.455	B5
0.515	B6
0.566	B7
0.475	B8

Biological target: T2, PCSK9-BP15-His6 (human, UniProt Q8NBP7 31-692, biotin on the BP15 biotin receiving peptide)
T2 construct: It holds a signal peptide (underlined in print); also called WT PCSK9; bio-WT-PCSK9
Experiment: ELISA, bio-WT-PCSK9 captured on streptavidin plate
Experimental: The binding ability of anti-PCSK9 antibodies of the present invention to PCSK9 was detected by measuring the amount of antibodies binding to wild-type PCSK9 protein (WT PCSK9, SEQ ID NO: 5) fixed on the ELISA plate.
Streptavidin (sigma, CAT#S4762) was diluted to 2 μg/ml with PBS and coated into 96-well ELISA plate, at 4° C. overnight. The plate was washed and then blocked with Tris buffer (including 0.9 mM CaCl2, 0.05% Tween 20 and 5% skim milk) at 37° C. for 2 hours. Then the plate was washed again and 100 μl/well of the biotin-labeled PCSK9, produced in-house, (bio-WT-PCSK9, diluted with Tris buffer containing 0.9 mM CaCl2, 0.05% Tween 20 and 1% skim milk), was added and incubated at 37° C. for 1 hour. After the wash step, different concentrations of diluted PCSK9 antibody samples was added to the plate and incubated at 37° C. for 1 hour. Then the plate was washed again and HRP-goat-anti-human (H+L) antibody (Jackson ImmunoResearch, CAT#109-035-088) was added and incubated at 37° C. for 1 hour. Then the plate was washed again and tetramethylbenzidine solution was added for development. Finally, the stop solution was added and the OD450 value was measured on the Microplate reader, and then EC50 was calculated.

EC50 [µg/mL]	Binder
0.0084	B9
0.0123	B10
0.011	B11
0.0145	B12
0.0136	B1
0.0114	B13
0.0147	B14
0.0071	B15
0.0126	B16
0.0129	B17
0.01	B2
0.0139	B18
0.0082	B19
0.009	B3
0.0141	B4
0.0103	B20
0.0123	B5
0.012	B6
0.0118	B21
0.0084	B7
0.0113	B8
0.0092	B22

Biological target: T1, PCSK9-D374Y-BP15-His6
Experiment: ELISA, bio-PCSK9-Y captured on streptavidin plate
Experimental: The binding ability of anti-PCSK9 antibodies of the present invention to PCSK9-Y was detected by measuring the amount of antibodies binding to PCSK9-Y (mutant PCSK9, SEQ ID NO: 6) fixed on the ELISA plate.
Streptavidin (sigma, CAT#54762) was diluted to 2 μg/ml with PBS and coated into 96-well ELISA plate at 4° C. overnight. The plate was washed and then blocked with Tris buffer (including 0.9 mM CaCl₂, 0.05% Tween 20 and 5% skim milk) at 37° C. for 2 hours. Then the plate was washed again and 100 μl/well of the biotin-labeled PCSK9-Y, produced in-house, (bio-PCSK9-Y, diluted with Tris buffer containing 0.9 mM CaCl₂, 0.05% Tween 20 and 1% skim milk) was added and incubated at 37° C. for 1 hour. After the wash step, different concentrations of diluted PCSK9 antibody samples were added to the plate and incubated at 37° C. for 1 hour. Then the plate was washed again and HRP-goat-anti-human (H+L) antibody (Jackson ImmunoResearch, CAT#109-035-088) was added and incubated at 37° C. for 1 hour. Then the plate was washed again and tetramethylbenzidine solution was added for development. Finally, the stop solution was added and the OD450 value was measured on the Microplate reader, and then EC50 was calculated.
The results of ELISA test for the binding ability of chimeric antibodies and back-mutated antibodies of the present invention to mutant PCSK9 are shown in table 6.

EC50 [µg/mL]	Binder
0.0112	B9
0.0111	B10
0.0178	B11
0.0119	B12
0.0194	B1
0.0161	B13
0.0191	B14
0.0096	B15
0.017	B16
0.017	B17
0.0144	B2
0.0204	B18
0.0111	B19
0.0165	B3
0.0152	B4
0.0124	B20
0.0157	B5
0.0137	B6
0.0125	B21
0.0132	B7
0.0152	B8
0.017	B22

Biological target: T2, PCSK9-BP15-His6
Experiment: blocking ELISA, LDLR-FC (SEQ ID NO: 8) coated, bio-WT-PCSK9 plus antibody
Experimental: The blocking abilities of PCSK9 antibodies of the present invention to the binding of LDLR-FC (produced in-house, sequence is shown in SEQ ID NO: 8) to PCSK9 (SEQ ID NO: 5) were detected by measuring the amount of PCSK9 binding to LDLR in the presence of the antibodies.
LDLR-FC was diluted to 5 μg/ml with phosphate buffer and coated in the 96-well ELISA plate, then incubated at 4° C. overnight. The plate was washed and then blocked with Tris buffer (including 0.9 mM CaCl₂, 0.05% Tween 20 and 5% skim milk) at 37° C. for 2 hours. Then the plate was washed again and 100 μl/well of the mixture of biotin-labeled PCSK9 (bio-WT-PCSK9, diluted to the final concentration of 2 μg/ml with Tris buffer containing 0.9 mM CaCl₂, 0.05% Tween 20 and 1% skim milk) and antibody samples (diluted with Tris buffer containing 0.9 mM CaCl₂, 0.05% Tween 20 and 1% skim milk) were added and incubated at 37° C. for 1 hour. Then the plate was washed again and horseradish peroxidase-streptavidin (Sigma, CAT#52438) was added and incubated at 37° C. for 1 hour. Then the plate was washed and tetramethylbenzidine solution was added for development. Finally, the stop solution was added and the OD450 was measured on the Microplate reader, then IC50 was calculated.

IC50 [µg/mL]	Binder
0.923	B1
0.662	B2
0.774	B3
4.32	B4
0.675	B5
0.652	B6
0.5	B7
0.702	B8
